The target in the assay is T1, human-ANGPTL3(17-460)-His (human, UniProt Q9Y5C1 17-460, biotin-labelled (labelling kit, sites not stated)).
T1 construct: also called full-length human ANGPTL3
T1 sequence: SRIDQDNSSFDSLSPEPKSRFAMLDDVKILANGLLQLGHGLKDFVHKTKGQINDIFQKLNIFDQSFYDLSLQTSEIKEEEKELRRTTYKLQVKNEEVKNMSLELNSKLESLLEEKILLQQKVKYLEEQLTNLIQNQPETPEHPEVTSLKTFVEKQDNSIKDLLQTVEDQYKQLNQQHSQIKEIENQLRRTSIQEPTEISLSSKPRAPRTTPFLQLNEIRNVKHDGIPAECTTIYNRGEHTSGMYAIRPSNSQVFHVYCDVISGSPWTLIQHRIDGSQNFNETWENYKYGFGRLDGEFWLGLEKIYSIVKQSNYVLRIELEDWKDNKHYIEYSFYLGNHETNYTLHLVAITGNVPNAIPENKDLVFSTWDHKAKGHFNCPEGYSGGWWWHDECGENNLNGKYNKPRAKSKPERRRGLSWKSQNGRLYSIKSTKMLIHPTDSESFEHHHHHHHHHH
Put plainly: HTRF; biotin-labelled antigen with Streptavidin-Tb cryptate. (TR-FRET usually uses a lanthanide donor and a delayed reading to cut background.)

B1: P8BG (antibody, human IgG4 S228P, kappa, V domains shown)
VH: QVQLVQSGAEVKKPGASVKVSCKASGYTFTSYDINWVRQAPGQGLEWVGLINPREDSTSYAQKFQGRVTMTRDTSTSTMYMELSSLRSEDTAVYFCARDLGSIREVLYYGMDVWGQGTTVTVSS
VL: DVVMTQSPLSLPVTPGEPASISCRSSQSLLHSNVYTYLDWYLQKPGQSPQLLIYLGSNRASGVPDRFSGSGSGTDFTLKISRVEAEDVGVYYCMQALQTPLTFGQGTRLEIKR
notes: also called anti-ANGPTL3 antibody P8BG; P8B (variable regions)
For the molecule B1, the EC50 (in general, the midpoint of the concentration-response curve) was 0.277 nM.

(Values after US20230138315A1 (JIANGSU HENGRUI MEDICINE, published 2023).)
